From patent US20100086997A1 (published 2010) come the findings set out here.

B1: Fc-fused recombinant human P75 (Fc fusion, UniProt P08138 29-250, looked up)
chain: KEACPTGLYTHSGECCKACNLGEGVAQPCGANQTVCEPCLDSVTFSDVVSATEPCKPCTECVGLQSMSAPCVEADDAVCRCAYGYYQDETTGRCEACRVCEAGSGLVFSCQDKQNTVCEECPDGTYSDEANHVDPCLPCTVCEDTERQLRECTRWADAECEEIPGRWITRSTPPEGSDSTAPSTQEPEAPPEQDLIASTVAGVVTTVMGSSQPVVTRGTTDN
notes: Bought from R&D Systems or made in-house; also called p75 neurotrophin receptor; LNGFR; not shown: Fc part
B2: NT4/5 (ligand, UniProt P34130 81-210, looked up)
chain: GVSETAPASRRGELAVCDAVSGWVTDRRTAVDLRGREVEVLGEVPAAGGSPLRQYFFETRCKADNAEEGGPGAGGGGCRGVDRRHWVSECKAKQSYVRALTADAQGRVGWRWIRIDTACVCTLLSRTGRA
B3: NT3 (ligand, UniProt P20783 139-257, looked up)
chain: YAEHKSHRGEYSVCDSESLWVTDKSSAIDIRGHQVTVLGEIKTGNSPVKQYFYETRCKEARPVKNGCRGIDDKHWNSQCKTSQTYVRALTSENNKLVGWRWIRIDTSCVCALSRKIGRT
notes: 'native ligands' bought from R&D Systems or made in-house
B4: brain-derived neurotrophic factor (BDNF) (ligand, UniProt P23560 129-247, looked up)
chain: HSDPARRGELSVCDSISEWVTAADKKTAVDMSGGTVTVLEKVPVSKGQLKQYFYETKCNPMGYTKEGCRGIDKRHWNSQCRTTQSYVRALTMDSKKRIGWRFIRIDTSCVCTLTIKRGR

Holding throughout (assay): SPR (Biacore 3000), Fc-fused receptor amine-coupled to CM5 chip, ligand in solution, 25 C
One assay deals with ProNGF (UniProt P01138 19-241). As for the experimental part: (§1) A standard amine-coupling protocol was used in HBS-EP running buffer at 5 μl/min and involved three steps. […]. First, flow cells were activated with a 7-minute injection of a freshly prepared mixture of 200 mM EDC in 50 mM NHS; this step converted the chip's carboxylic acid groups to reactive esters. Next, receptors were diluted to ˜10 μg/mL in 10 mM sodium acetate buffer at pH 4.5 and coupled to the chip until the desired level had been reached. Finally, excess reactive esters were blocked with a 7-minute injection of 1M sodium ethanolamine-HCl (pH 8.5).
ProNGF, sequence (P01138 19-241): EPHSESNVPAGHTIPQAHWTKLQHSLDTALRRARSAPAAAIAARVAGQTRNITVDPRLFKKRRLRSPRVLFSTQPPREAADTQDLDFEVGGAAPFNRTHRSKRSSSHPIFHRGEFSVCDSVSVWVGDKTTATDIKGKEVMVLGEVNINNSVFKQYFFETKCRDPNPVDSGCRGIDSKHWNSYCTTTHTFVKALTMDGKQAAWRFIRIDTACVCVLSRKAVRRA
(§2) The Fab fragment of antibody 200.38B8 (38B8) was diluted from 0.7-480 nM in 3-fold increments. Samples were injected for 30 seconds at 100 μl/min allowing dissociation times of up to 10 mins. After each binding cycle, receptor surfaces were regenerated with a mildly acidic cocktail (10 mM glycine-HCl (pH 4.0), 500 mM NaCl, and 20 mM EDTA). […] Kinetic rate constants (kon and koff) were determined by fitting the binding data globally to a mass transport model and binding affinities were calculated from their ratio, KD=koff/kon.

Assay [1] has as its target T1, Fc-fused recombinant human TrkC (human, UniProt Q16288 32-429).
T1 construct: Bought from R&D Systems or made in-house; not shown: Fc part
As for the experimental part: as §1, §2

Assay [2] has as its target B1. As to the method:
as §1, §2

The target in assay [3] is T2, human TrkB-Fc fusion protein (human, UniProt Q16620 32-430).
T2 construct: Bought from R&D Systems or made in-house; also called HuTrkB; Fc-fused recombinant human TrkB; not shown: Fc part
T2 sequence (Q16620 32-430 limits assumed): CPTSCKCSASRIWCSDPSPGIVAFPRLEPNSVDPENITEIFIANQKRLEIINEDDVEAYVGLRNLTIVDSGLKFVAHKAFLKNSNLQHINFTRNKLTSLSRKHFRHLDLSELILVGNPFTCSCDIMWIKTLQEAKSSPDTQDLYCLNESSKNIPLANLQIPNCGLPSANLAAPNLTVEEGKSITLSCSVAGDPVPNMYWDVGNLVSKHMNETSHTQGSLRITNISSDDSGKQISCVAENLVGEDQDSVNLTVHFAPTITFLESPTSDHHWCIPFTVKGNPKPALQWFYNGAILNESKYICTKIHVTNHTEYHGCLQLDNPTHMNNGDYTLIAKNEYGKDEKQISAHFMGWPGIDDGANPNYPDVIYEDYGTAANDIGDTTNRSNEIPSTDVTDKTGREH
As to the method:
as §1, §2

In assay [4] the target is T3, Fc-fused recombinant human TrkA (human, UniProt P04629-2 33-407, limits assumed).
T3 construct: Bought from R&D Systems or made in-house; not shown: Fc part
T3 sequence (P04629 other isoform, or with tags, fused parts or gaps limits assumed): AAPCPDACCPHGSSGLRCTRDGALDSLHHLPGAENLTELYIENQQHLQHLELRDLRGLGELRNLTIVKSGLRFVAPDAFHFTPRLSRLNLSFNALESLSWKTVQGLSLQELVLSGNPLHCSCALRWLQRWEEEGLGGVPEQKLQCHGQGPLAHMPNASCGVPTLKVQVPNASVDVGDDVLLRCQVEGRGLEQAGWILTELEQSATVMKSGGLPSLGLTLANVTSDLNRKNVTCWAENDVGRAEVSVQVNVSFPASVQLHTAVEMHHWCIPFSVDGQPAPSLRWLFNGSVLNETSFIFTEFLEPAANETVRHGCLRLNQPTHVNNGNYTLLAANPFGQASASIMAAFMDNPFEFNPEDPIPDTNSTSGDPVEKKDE
As to the method: as §1, §2

In the assay with ProNGF, B1 gave a Kd of 130 nM, a dissociation rate constant (koff) of 0.0858 s⁻¹ and a kon of 658000 M⁻¹ s⁻¹.

As for B2, the binding result in assay [1] is “no binding (tested: 0.08-250 nM)”. In addition, in assay [2], the Kd came to 88 nM, the off-rate constant (koff) amounted to 0.305 s⁻¹ and the kon came out at 3.45e+06 M⁻¹ s⁻¹. In assay [3], the Kd was less than 0.2 nM, the koff is 0.002 s⁻¹ and the kon is more than 1e+07 M⁻¹ s⁻¹. For the same molecule, in assay [4], the Kd is 17 nM, the koff is 0.04 s⁻¹ and the kon was found to be 2.1e+06 M⁻¹ s⁻¹.

Molecule B3 gave a Kd in assay [3] of less than 4.4 nM.

As for B4, the Kd was less than 2.1 nM in assay [2] and less than 0.034 nM in assay [3].

As usually defined, the Kd is the concentration at which binding is half-saturated. The term koff denotes the first-order rate constant of dissociation. Broadly, the kon is a measure of how fast the partners come together.
